Reference: US20020028202A1 (Biogen, published 2002)

What was measured:
Assay in all cases: staining of transfected COS-7 cells, FACS
[1] = target: T1, human gc chain mutant, PL replaced by Ala (Domain 2 Loop FQ), myc-tagged, on COS-7 cells (human, UniProt P31785 23-369)
T1 construct: whole, on cells; not shown: 9 amino acid myc tag at the 5' end of the construct
T1 sequence (looked up): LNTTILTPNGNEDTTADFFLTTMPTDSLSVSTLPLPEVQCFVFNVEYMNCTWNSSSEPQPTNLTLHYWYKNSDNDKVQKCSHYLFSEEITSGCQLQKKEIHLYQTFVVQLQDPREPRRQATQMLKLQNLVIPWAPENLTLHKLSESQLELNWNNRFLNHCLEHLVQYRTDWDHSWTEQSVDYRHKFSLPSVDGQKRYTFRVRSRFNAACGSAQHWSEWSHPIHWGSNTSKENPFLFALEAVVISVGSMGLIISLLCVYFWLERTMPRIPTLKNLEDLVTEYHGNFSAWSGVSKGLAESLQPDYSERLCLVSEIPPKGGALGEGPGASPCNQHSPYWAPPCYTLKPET
Procedure: (§1) COS-7 cells are transiently transfected with 20 ug of DNA encoding the gc chain mutant or wildtype cDNA and 180 ug of herring sperm carrier DNA. After 2-3 days, COS-7 cells are harvested and analyzed by immnunofluorescent staining with anti-gc chain mAbs. MAbs are used at 10 ug/ml in PBS-1% BSA-0.02% sodium azide and allowed 30 minutes to bind to 1×10⁶ COS-7 cells. Cells are then washed 2 times, and bound mAb is detected with PE-conjugated goat anti-mouse Fc specific antibodies. The % of positive cells staining with the anti-gc chain mAb over an irrelevant control Ig is determined for a given gc chain mutant and for wildtype gc chain. […] Data are adjusted for any differences in level of expression of a mutant vs. wildtype constructs by measuring the binding of a mAb specific for a 9 amino acid myc tag engineered at the 5′ end of each gc chain construct. […] Values reduced from 100% indicate amino acid mutations which affect mAb binding.
(§2) The value “100%” indicates no effect of mutation and lower percentages indicate greater losses in binding as a result of the sequence change.

[2] = target: T2, human gc chain mutant, LSE replaced by Ala (Domain 2 Loop AB), myc-tagged, on COS-7 cells (human, UniProt P31785 23-369)
T2 construct: whole, on cells; not shown: 9 amino acid myc tag at the 5' end of the construct
T2 sequence (looked up): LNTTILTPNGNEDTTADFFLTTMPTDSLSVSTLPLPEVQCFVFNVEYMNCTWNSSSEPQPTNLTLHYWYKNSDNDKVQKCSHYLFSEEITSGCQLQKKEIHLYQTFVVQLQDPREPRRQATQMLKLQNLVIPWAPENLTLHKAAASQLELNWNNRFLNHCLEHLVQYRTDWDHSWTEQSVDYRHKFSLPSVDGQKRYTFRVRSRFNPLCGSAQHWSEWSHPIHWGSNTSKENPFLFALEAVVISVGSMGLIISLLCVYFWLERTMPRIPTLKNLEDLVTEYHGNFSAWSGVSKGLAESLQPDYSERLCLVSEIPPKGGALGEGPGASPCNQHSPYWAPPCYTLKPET
Procedure: as §1, §2

[3] = target: T3, human gc chain mutant, KEI replaced by Ala (Domain 1 Loop EF), myc-tagged, on COS-7 cells (human, UniProt P31785 23-369)
T3 construct: whole, on cells; not shown: 9 amino acid myc tag at the 5' end of the construct
T3 sequence (looked up): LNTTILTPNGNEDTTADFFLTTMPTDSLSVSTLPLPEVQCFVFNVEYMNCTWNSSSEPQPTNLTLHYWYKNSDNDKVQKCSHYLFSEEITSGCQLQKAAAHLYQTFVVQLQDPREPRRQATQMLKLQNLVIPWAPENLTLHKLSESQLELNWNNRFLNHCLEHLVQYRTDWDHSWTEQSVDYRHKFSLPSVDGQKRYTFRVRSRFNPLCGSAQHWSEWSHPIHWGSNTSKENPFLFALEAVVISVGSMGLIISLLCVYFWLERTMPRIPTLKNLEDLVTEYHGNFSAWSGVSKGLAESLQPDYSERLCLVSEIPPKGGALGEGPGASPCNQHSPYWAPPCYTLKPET
Procedure: as §1, §2

[4] = target: T4, human gc chain mutant, RFL replaced by Ala (Domain 2 Loop BC), myc-tagged, on COS-7 cells (human, UniProt P31785 23-369)
T4 construct: whole, on cells; not shown: 9 amino acid myc tag at the 5' end of the construct
T4 sequence (looked up): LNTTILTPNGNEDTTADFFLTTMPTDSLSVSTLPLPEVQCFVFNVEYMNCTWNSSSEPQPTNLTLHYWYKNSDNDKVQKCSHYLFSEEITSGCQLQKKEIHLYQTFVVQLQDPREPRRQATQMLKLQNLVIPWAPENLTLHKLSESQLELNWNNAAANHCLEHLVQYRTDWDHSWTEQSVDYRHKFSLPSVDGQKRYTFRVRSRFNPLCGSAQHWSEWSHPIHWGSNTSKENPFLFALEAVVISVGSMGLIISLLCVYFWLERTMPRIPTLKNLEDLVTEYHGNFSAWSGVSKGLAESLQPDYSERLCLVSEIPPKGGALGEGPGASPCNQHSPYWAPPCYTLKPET
Procedure: as §1, §2

[5] = target: T5, human gc chain mutant, IHL replaced by Ala (Domain 1 Loop EF), myc-tagged, on COS-7 cells (human, UniProt P31785 23-369)
T5 construct: whole, on cells; not shown: 9 amino acid myc tag at the 5' end of the construct
T5 sequence (looked up): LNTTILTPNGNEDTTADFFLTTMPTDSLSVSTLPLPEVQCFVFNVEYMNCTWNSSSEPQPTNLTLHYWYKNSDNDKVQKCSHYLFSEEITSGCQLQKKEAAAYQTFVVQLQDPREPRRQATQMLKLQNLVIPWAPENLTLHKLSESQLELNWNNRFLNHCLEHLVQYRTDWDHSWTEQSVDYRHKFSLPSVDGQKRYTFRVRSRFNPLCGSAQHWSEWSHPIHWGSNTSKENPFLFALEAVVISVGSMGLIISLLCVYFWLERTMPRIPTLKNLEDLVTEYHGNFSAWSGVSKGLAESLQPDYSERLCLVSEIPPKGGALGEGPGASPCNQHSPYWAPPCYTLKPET
Procedure: as §1, §2

B1: CP.B8 monoclonal antibody (murine anti-human gc chain, hybridoma ATCC HB-12107) (antibody, V domains shown)
VH: LQESGPGLVAPSQSLSITCTVSGFSLTSYGVHWVRQPPGKGLEWLGVIWAGGSTNYNSALMSRLNINRDNSKSQIFLKMNSLQTDDTAIYYCAREGSTVDSMDYWGQGTTVT
VL: DIVMTQSHKFMSTSVGDSITITCKASQDVTTAVAWYQQKPGQSPKLLIYWASTRHTGVPDRFTGSGSGTDYTLTISSVQAEDLALYYCQQHYITPWTFGGGTKLEI
notes: Used unconjugated and biotin-conjugated; also called CP.B8 mAb; mAb CP.B8
With B1 the “% binding to mutant gc chain/wildtype gc chain” value [1] was 86%, the “% binding to mutant gc chain/wildtype gc chain” value [2] was 90% and the “% binding to mutant gc chain/wildtype gc chain” value [3] was 2%. For the same binder, the “% binding to mutant gc chain/wildtype gc chain” value [4] was 89% and the “% binding to mutant gc chain/wildtype gc chain” value [5] was 0%.
